Key:
Test in all cases: FP filter
[1] = test system: TZ05 DNA polymerase (Thermus species Z05); settings: 55C
[2] = biological target: Tth DNA polymerase (Thermus thermophilus) (UniProt P52028)
[3] = biological target: Taq DNA polymerase (Thermus aquaticus) (UniProt P19821)
Sequence of Taq DNA polymerase (Thermus aquaticus) (P19821 whole entry): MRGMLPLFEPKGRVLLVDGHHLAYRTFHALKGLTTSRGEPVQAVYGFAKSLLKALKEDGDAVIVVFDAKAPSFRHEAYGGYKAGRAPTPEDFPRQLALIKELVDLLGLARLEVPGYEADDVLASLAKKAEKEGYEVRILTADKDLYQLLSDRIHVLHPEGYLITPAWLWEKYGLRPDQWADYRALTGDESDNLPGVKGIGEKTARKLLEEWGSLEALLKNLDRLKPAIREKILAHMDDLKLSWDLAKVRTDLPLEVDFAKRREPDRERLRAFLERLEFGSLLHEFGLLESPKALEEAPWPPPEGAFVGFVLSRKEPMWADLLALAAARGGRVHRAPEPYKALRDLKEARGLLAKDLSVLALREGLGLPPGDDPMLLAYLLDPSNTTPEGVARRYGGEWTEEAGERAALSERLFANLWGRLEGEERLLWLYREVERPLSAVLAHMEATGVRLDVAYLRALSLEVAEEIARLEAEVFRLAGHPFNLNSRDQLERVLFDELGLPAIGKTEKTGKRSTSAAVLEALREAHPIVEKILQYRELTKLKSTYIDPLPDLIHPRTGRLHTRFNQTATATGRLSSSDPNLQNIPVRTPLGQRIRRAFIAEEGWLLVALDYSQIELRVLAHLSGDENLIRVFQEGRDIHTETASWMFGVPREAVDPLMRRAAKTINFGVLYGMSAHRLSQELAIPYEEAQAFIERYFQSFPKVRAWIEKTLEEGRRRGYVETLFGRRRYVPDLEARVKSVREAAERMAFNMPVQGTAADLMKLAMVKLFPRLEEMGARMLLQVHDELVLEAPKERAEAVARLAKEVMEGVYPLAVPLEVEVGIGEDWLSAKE

Sequence of Tth DNA polymerase (Thermus thermophilus) (P52028 whole entry): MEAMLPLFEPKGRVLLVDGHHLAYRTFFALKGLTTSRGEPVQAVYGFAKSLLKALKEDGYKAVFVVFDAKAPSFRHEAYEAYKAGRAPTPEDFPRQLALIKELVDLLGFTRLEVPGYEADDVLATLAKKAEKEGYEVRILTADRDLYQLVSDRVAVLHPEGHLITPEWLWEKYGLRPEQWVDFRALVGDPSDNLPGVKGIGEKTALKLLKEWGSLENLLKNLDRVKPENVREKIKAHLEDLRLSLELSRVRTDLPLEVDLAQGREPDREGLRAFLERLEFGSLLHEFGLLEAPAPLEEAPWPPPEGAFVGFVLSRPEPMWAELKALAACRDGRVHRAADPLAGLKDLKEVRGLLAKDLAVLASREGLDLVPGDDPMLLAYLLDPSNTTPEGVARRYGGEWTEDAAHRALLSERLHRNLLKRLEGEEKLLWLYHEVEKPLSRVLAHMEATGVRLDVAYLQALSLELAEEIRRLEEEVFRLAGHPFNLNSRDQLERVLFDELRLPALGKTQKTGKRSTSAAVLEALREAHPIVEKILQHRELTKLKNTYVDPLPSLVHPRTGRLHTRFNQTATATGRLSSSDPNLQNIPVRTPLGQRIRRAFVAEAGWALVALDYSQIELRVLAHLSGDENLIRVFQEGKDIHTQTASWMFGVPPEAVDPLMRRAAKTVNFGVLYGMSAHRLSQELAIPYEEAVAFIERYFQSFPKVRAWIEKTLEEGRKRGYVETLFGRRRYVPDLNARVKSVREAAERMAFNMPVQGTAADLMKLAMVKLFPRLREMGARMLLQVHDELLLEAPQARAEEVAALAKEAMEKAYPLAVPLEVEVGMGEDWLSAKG

## TTCTCGGTTGGTCTCTGGCGGAGCGAAGCATACGAAGACATTCCAACGTTTTGTCTTGTGTATGATTCGCTTTTCCC [TZ54]
[1]; IT50 52C
  Kd: 0.023 nM

## TTCTCGGTTGGTCTCTGGCGGAGCACGGGAGGGTGTGGAGTGGGTGGCGCGGGCTCTTGTGTATGATTCGCTTTTCCC [TZ36]
[1]; IT50 51C
  Kd: 0.02 nM

## TTCTCGGTTGGTCTCTGGCGGAGCGCGAGGGTGTGGCGTGGGTGGCGCGATCTTGTGTATGATTCGCTTTTCCC [TZ2]
[1]; printed as >>1000, IT50 <<35C
  Kd: > 1 nM

## TTCTCGGTTGGTCTCTGGCGGAGCGAAGCATACGAAGACATTCCAACGTTTTGTCTTGTGTATGATTCGCTTTTCCC [TZ8]
[1]; IT50 52C
  Kd: 0.005 nM

## TTCTCGGTTGGTCTCTGGCGGAGCACACCGGGGGGGCTGCGGGCAAGGCGGGTGTCTTGTGTATGATTCGCTTTTCCC [TZ1]
[1]; IT50 52.5C
  Kd: 0.016 nM

## TTCTCGGTTGGTCTCTGGCGGAGCNNNNNNNNNNNNNNNNNNNNNNNNNNNNNNTCTTGTGTATGATTCGCTTTTCCC [enriched Taq pool round 12]
[2]; cross binding, room temp
  Kd: 0.2 nM
[3]; Taq binding buffer, room temp
  Kd: 3.5 nM

## TTCTCGGTTGGTCTCTGGCGGAGCGAACATACGAAGACATTCCAACGTTTTGTCTTGTGTATGATTCGCTTTTCCC [TZ69]
[1]; IT50 46C
  Kd: 0.02 nM

## TTCTCGGTTGGTCTCTGGCGGAGCACGTCGGGGGGGCGTTGGGACGGGCAGACGTCTTGTGTATGATTCGCTTTTCCC [TZ13]
[1]; IT50 58.5C
  Kd: 0.017 nM

## TTCTCGGTTGGTCTCTGGCGGAGCNNNNNNNNNNNNNNNNNNNNNNNNNNNNNNTCTTGTGTATGATTCGCTTTTCCC [random ssDNA pool]
[2]; 50 mM Bicine pH 8.3, 90 mM KCl, 3.5 mM Mn(OAc)2, room temp
  Kd: 70 nM

## TTCTCGGTTGGTCTCTGGCGGAGCATACACGACGTCATTCTAGCGTTTTGACGTCTTGTGTATGATTCGCTTTTCCC [ligand 22 (TQH22) / TZ3]
[1]; as TZ3, IT50 52C
  Kd: 0.009 nM

## TTCTCGGTTGGTCTCTGGCGGAGCGGATCAGACACGAGACATTGCGGACTTTTGTCTTGTGTATGATTCGCTTTTCCC [TZ9]
[1]; IT50 52C
  Kd: 0.005 nM

## TTCTCGGTTGGTCTCTGGCGGAGCNNNNNNNNNNNNNNNNNNNNNNNNNNNNNNTCTTGTGTATGATTCGCTTTTCCC [enriched Tth pool round 10]
[2]; Tth binding buffer, room temp
  Kd: 5 nM
[3]; cross binding, saturates at about 50%
  Kd: 0.3 nM

## TTCTCGGTTGGTCTCTGGCGGAGCACGTCGGGGGGGCCCTGGGGACGGGCAGGCGTCTTGTGTATGATTCGCTTTTCCC [TZ26]
[1]; printed as >>500, IT50 41C
  Kd: > 0.5 nM
